According to FireProtDB (doi:10.1021/bi00005a026):

Conditions: Hordeum vulgare; pH 6.3; Thermal; Fluorescence; phosphate 10 mM; reversible: yes; whole UniProt chain shown

B1: Subtilisin-chymotrypsin inhibitor-2A wild type, P01053 (protein)
chain: MSSVEKKPEGVNTGAGDRHNLKTEWPELVGKSVEEAKKVILQDKPEAQIIVLPVGTIVTMEYRIDRVRLFVDKLDNIAQVPRVG
Tm: 46.6 °C | unfolding enthalpy (van 't Hoff): 34.1 kcal/mol
